In publication PMC4389572 one finds Kd data, which are given here for four molecules.

This test deals with C3G-based poly-Pro peptide ligand. As to the kind of experiment: other fluorescence titration; fluorescence-based titration assay as described in Camarero et al., 2001b; conditions not given here.

B1: SH3_(lin-wt), linear N-terminal SH3 domain of c-Crk (residues 134-190 with an additional Gly191) (domain or fragment)
chain: AEYVRALFDFNGNDEEDLPFKKGDILRIRDKPEEQWWNAEDSEGKRGMIPVPYVEKYG
Usually Kd stands for the free concentration of one partner at which half of the binding sites on the other are occupied at equilibrium, for simple one-to-one binding. Low readings indicate a tighter complex, high ones a looser complex. With B1, the dissociation constant (Kd) came to 870 nM.

B2: SH3_(circ-GΔ), backbone-cyclized N-terminal SH3 domain of c-Crk lacking Ala134 and Glu135 (Cys-Gly + residues 136-191) (domain or fragment)
chain: CGYVRALFDFNGNDEEDLPFKKGDILRIRDKPEEQWWNAEDSEGKRGMIPVPYVEKYG
modifications: backbone cyclized: cyclo-[...], peptide bond between the N-terminal Cys and the C-terminal Gly191
The molecule B2 yielded a dissociation constant (Kd) of 470 nM.

B3: SH3_(circ-wt), backbone-cyclized N-terminal SH3 domain of c-Crk (Cys-Gly + residues 134-191) (domain or fragment)
chain: CGAEYVRALFDFNGNDEEDLPFKKGDILRIRDKPEEQWWNAEDSEGKRGMIPVPYVEKYG
modifications: backbone cyclized: cyclo-[...], peptide bond between the N-terminal Cys and the C-terminal Gly191
Regarding B3, the Kd is 890 nM. This Kd is about 1.9-fold higher than that of the molecule before.

B4: SH3_(circ-Δ), backbone-cyclized N-terminal SH3 domain of c-Crk lacking Ala134 and Glu135 (Cys + residues 136-191) (domain or fragment)
chain: CYVRALFDFNGNDEEDLPFKKGDILRIRDKPEEQWWNAEDSEGKRGMIPVPYVEKYG
modifications: backbone cyclized: cyclo-[...], peptide bond between the N-terminal Cys and the C-terminal Gly191
With B4, the dissociation constant Kd was determined as 430 nM.
